PMC9355956

Test system: CC(C)C[C@H](NC(=O)[C@H](CCC(N)=O)NC(=O)[C@H](CCCCN)NC(=O)[C@H](CCCNC(=N)N)NC(=O)[C@@H]1CCCN1C(=O)[C@H](C)NC(=O)[C@H](CCCCN)NC(=O)CNC(=O)CNC(=O)[C@@H](NC(=O)[C@H](CO)NC(=O)[C@H](CCCCN)NC(=O)[C@H](CCCNC(=N)N)NC(=O)[C@H](C)NC(=O)[C@@H](NC(=O)[C@H](CCC(N)=O)NC(=O)[C@H](CCCCN(C)C)NC(=O)[C@@H](NC(=O)[C@H](CCCNC(=N)N)NC(=O)[C@H](C)N)[C@@H](C)O)[C@@H](C)O)[C@@H](C)O)C(=O)N[C@@H](C)C(=O)O
Assay: purified protein, by the assay type
Details: other: substrate, 20 nM LSD1
Method: The activity of hSMOX, hPAOX, and LSD1 enzymes was measured using the HyPerBlu chemiluminescent reagent for the direct detection of the hydrogen peroxide product. […] Hydrogen peroxide product formation was monitored 30 min after the addition of HyPerBlu on a PHERAstar microplate reader (BMG LABTECH, Cary, NC). All compounds were spotted into the assay plates using Echo acoustic dispensing technology (BeckmanCoulter, Indianapolis, IN). Unless otherwise stated, all reactions were carried out in 384-well assay format.
2 µL/well of 2x substrate was dispensed into the assay plate followed by 2 µL/well of 2x enzyme to initiate the reactions. […] The data were fit to the 4-parameter IC50 equation in GraphPad Prism.
Briefly, 2.5 µL/well of the twofold substrate solutions prepared in buffer was added to the assay wells followed by 2.5 µL/well of the 2x enzyme to initiate the reactions.
The initial velocity data were fit to the Michaelis-Menten equation in GraphPad Prism. Y=Vmax*X/(Km+X) where Vmax is the maximal velocity, X is the substrate concentration and Km is the Michaelis-Menten constant. The kcat value was determined by dividing Vmax value by the enzyme concentration.

Substance LSD1 (Homo sapiens) has a Km of 3.8 ± 0.35 µM.
